Results: a protein production outcome set (Wang et al. 2014)

Experiment: label from the status in PepcDB records

Sequence | protein production
MLAAGEGKRMGACKPLLPLGASTVLAHVAKTLLPAINGPLVVVTGHHGDAVTAEALRLSLETAENTTPQDGMFSSVRTGIAHIVGRVDGVLVLPADIPFVRTATCALVVEAFRRHRAAVTYPTLCGERGHPPLLDADTMRAVLASSGDGGLRGVLLALERQGGTTHDVAVADEGIVTDMDTPADHAQLVARHPLRHIPTPREREALLEMAGTPARVRAHCRMVARAALAMAAHLEATRRGFISPFARQSAPHGISTSGAHAEPRSVPASTTTHAVHAEGNTTLPHTATAHVACPPPDVTTGPMPTCQPGHMPDHMPGTARDAAQQAPAATASPQRLDRPLIHAAATLHDICKGTQRHEAAGGALLTRHGFPEVGSIIAAHRDIAPQAGPEIDEAALVMLADKYVRGVSLIPVEERFDERLREWAHRPDVACDIAARKARVLMVRDLFESETATELFPLLQRKVRRGTFLEHHHHHH | failed
MRRTVRYILATSNPMGDLEALEKFVKLAPDTGADAIALIGNLMPKAAKSRDYAAFFRILSEAHLPTAYVPGPQDAPIWEYLREAANVELVHPEMRNVHETFTFWRGPYLVAGVGGEIADEGEPEEHEALRYPAWVAEYRLKALWELKDYPKIFLFHTMPYHKGLNEQGSHEVAHLIKTHNPLLVLVAGKGQKHEMLGASWVVVPGDLSEGEYSLLDLRARKLETGNVR | not failed
MPAIFTHEGKVEGVPGNYPLTAENLFRIGLALCTLWILDKEIEEPTLSIPETNFVTLALSVGFMNAGGSVNVGKGGDIKLFLQKGEIYVLEFQPLSETDIKKLESILFGRAPIPKKTGEDIGSFKC | not failed
MSYEDWAGGIRCSECGREYTGIECPICRQADPTEREVVTEHGNGRGDQQPPENGTVSADSGVYDIDKIEHERHTDAEKVNPEVVDPSDYVTRAVSGVVFNKRHAWKAENRADEDNPPSLFVVTTADSEFNWIEIPLWDDAEGAMEDISIGDPIQAEGKLSKDNGVHNIHVHSQDSIDILTEPPEVKFDSMAIDQITSTTPKVDLEGTVERVGEIKDIQLDDEKVKLREIHVSDLNNDQIQVALWRTNAYEKVAPGDEIIIAGGLAKPHNEKVVVRVGWSGHIGYRSSLEHHHHHH | failed
MRPNLLEALRAMTEGELYAALYQDPLTGVLNRRAFAGAIEEARAVALVDMDSLKWINDNLGHRAGDRALRVLADGLVRSFGADWVFRVSGDEFAVMDGDAEQLAQRLLLLRSSVPGFSFGTGSDMAEADRDMRHDKAEREKSGHRAARGLRPPWVP | failed
MVIGLIATLYRPKEATLYVLLYLLLGAIGLPVFSGGNGGLHTFIGQTGGFLLFFPLRALVTSLIANRKKILIQIFIANFLGEVVLFIGGAIGFIIFTHSLILTTLKLVVLPFVLPDLIKITLTTLFSLLLLKALQSQSYFKIEK | failed
MSIFTAAMIALVYWISQAKVWYGFSIMRMPLSIAPIMGLIFNDMPTALSVGATLQMIYIGSIAPGGNPPADEGLASCIAIPIALTAGIKPEIAISLAIPLGLLGVVLENVRKTLNTTFIHMADRYAEKGDIKGIQRAATIYPLLLAFPMRFVPVFIACLYGPDAIASFVNLLPAWSTNGLAIAGNILPALGFAITIIVIGKKQYIPLFIIGFFLVTYSGLNTIGISIFGLCAVLLYMQSQNTKGTKNG | failed
MKVSLGNGEMGVSAHLQPCKAGTTRFFTSNTHSSVVLQGFDQLRIEGLLCDVTLVPGDGDEIFPVHRAMMASASDYFKAMFTGGMKEQDLMCIKLHGVNKVGLKKIIDFIYTAKLSLNMDNLQDTLEAASFLQILPVLDFCKVFLISGVSLDNCVEVGRIANTYNLIEVDKYVNNFILKNFPALLSTGEFLKLPFERLAFVLSSNSLKHCTELELFKAACRWLRLEDPRMDYAAKLMKNIRFPLMTPQDLINYVQTVDFMRTDNTCVNLLLEASNYQMMPYMQPVMQSDRTAIRSDSTHLVTLGGVLRQQLVVSKELRMYDERAQEWRSLAPMDAPRYQHGIAVIGNFLYVVGGQSNYDTKGKTAVDTVFRFDPRYNKWMQVASLNEKRTFFHLSALKGHLYAVGGRSAAGELATVECYNPRMNEWSYVAKMSEPHYGHAGTVYGGLMYISGGITHDTFQNELMCFDPDTDKWMQKAPMTTVRGLHCMCTVGDKLYVIGGNHFRGTSDYDDVLSCEYYSPTLDQWTPIAAMLRGQSDVGVAVFENKIYVVGGYSWNNRCMVEIVQKYDPEKDEWHKVFDLPESLGGIRACTLTVFPPEENPGSPSRESPLSAPSDHS | failed
AIREFNTKEKVFNEFTAVFDVLNHLPAFAKLHLANSMSVRYANTLGISQRNAEVFANRGTSGIDGVISTAYGYALKTSQLVTIITGDLAFFYDRNAFWNNYKPSNLRVVLLNNHGGGIFRMIDGPSALPELDELFETKQTLSARYLATEHGLEYTLCKNLNGLNQALESFFQPSMFGKILEIETDSVKN | failed
RVKESITRTSRAPSVATVGSICDLNLKIPEINSSDMSAHVTSPSGRVTEAEIVPMGKNSHCVRFVPQEMGVHTVSVKYRGQHVTGSPFQFTVGPLGEGG | not failed
MDKYLRLLSQGDRLGLTLIRLSIAIVFIWIGLLKFVPYEADSITPFVANSPFMSFFYEHPEEYRQHLTHEGELKPEERAWQTANNTYAFSDGLGVVELIIAALVLANPVSRWLGLAGGVLAFLTPFVTLSFLITTPEVWVMPLGDAHYGFPYLSGAGRLVLKDTLMLAGAVMIMADSARSLLLQRQ | failed
MELAVGNLSEGNASCPEPPAPEPGPLFGIGVENFVTLVVFGLIFALGVLGNSLVITVLARSKPGKPRSTTNLFILNLSIADLAYLLFCIPFQATVYALPTWVLGAFICKFIHYFFTVSMLVSIFTLAAMSVDRYVAIVHSRRSSSLRVSRNALLGVGCIWALSIAMASPVAYHQGLFHPRASNQTFCWEQWPDPRHKKAYVVCTFVFGYLLPLLLICFCYAKVLNHLHKKLKNMSKKSEASKKKTAQTVLVVVVVFGISWLPHHIIHLWAEFGVFPLTPASFLFRITAHCLAYSNSSVNPIIYAFLSENFRKAYKQVFKCHIRKDSHLSDTKENKSRIDTPPSTNCTHV | failed
MNKQFIILYFNIFLVFLGIGLVVPVLPVYLKDLGLKGSDLGILVAVFALAQMIISPFGGTLADKLGKKLIICIGLGLFAISEFLFAASHTFSLLIVSRILGGFSAGMVMPGVTGMIADISVGRDKAKNFGYMSAIINSGFILGPGMGGFLAEFSHRLPFYVAGFSGCVALILSIALIKNPKNSTQDGFTQYQPELLSKINWKVFLTPIILTLVLAFGLSAFETLFPLYTADKAHYSPLDISFAITGGGIAGAIFQVFFFDKFMKHFKELTFITYALLYSAIILLALTFVHSYWSIMIISFIVFIGFDMIRPAITNYFSNIAGNRQGFAGGLNSTFTSMGNFIGPLVAGTLYDINFEFPLYMSVLVMVLGMFVIFIEKMIRSRFSNI | failed
MIEQELTYQDLRIPSSEIYEAMGYKDSIPDQMVIDETNTLLKRVIPLLRPRFAFFFMEGTLDIEKETLSVQSIHPPTVNPIQDTIPTRSPEQNTFSTQSKSTVFSVGKTIARQLRGSEAFVFFAATAGTEFEVFQHTLQQEEDMVKIYIADSLGSIIAEKTADCMEVALAEYIREKNWKHTNRYSPGYCGWHVSEQQKLFPLFPIAAPCGIRLTDSSLMVPIKSVSGVIGTGTNVRKLEYTCGLCTYENCYRKRKHRLEHHHHHH | failed
MITVSIVSHGQSTLVEQLLADLVRLDMSMVTEVLVTLNIPEDISSKPGDYPYPVRILRNTAARGFGANHNAAFRQAEGEWFCVMNPDIRLINNPFPILIEEGAYDSAGVIAPMVVTPSGMIEDSVRCFPVLTSLAAKLFGHGDGRYLFAAGDEAFAADWVAGMFMLFRTEDFRAVGGFDEGFFLYYEDVDICARLWKSGRSVLACPKASVIHDARRSSRRNLRYMKWHALSLIRYFWKHWGRLPQTPEQLEHHHHHH | not failed
